# Starred links: 1 amine or outer side, 2 acyl side, 3 side chain; linkers in the order of their positions; H or OH if unused. Non-standard residues stand in square brackets, D forms with d. Primed or numbered codes have the meaning given here. *: point of attachment. AC4Abu = α-carboxy-4-aminobutyric acid, O=C(C(CCN[*:1])C(=O)[*:3])[*:2]; dBip = N[C@H](Cc1ccc(-c2ccccc2)cc1)C(=O)O; Oic = O=C(O)[C@@H]1C[C@@H]2CCCC[C@@H]2N1; Phe(4-Cl) = N[C@@H](Cc1ccc(Cl)cc1)C(=O)O; dPhe(4-Cl) = N[C@H](Cc1ccc(Cl)cc1)C(=O)O; Phe(4-I) = N[C@@H](Cc1ccc(I)cc1)C(=O)O; γGlu = O=C(O)[C@H](CCC(=O)[*:2])N[*:1]; HOOC(CH2)8CO = O=C(O)CCCCCCCCC(=O)*; d(β3hF) = N[C@@H](CC(=O)O)Cc1ccccc1; NMeR = CN[C@@H](CCCNC(=N)N)C(=O)O; Palmitoyl = CCCCCCCCCCCCCCCC(=O)*; Tridecanoyl = CCCCCCCCCCCCC(=O)*; hArg = N=C(N)NCCCC[C@H](N)C(=O)O; Cha = N[C@@H](CC1CCCCC1)C(=O)O; NMeL = CN[C@@H](CC(C)C)C(=O)O; αMeL = CC(C)C[C@](C)(N)C(=O)O; AC4Abu″ = not defined here; β3hP = O=C(O)C[C@@H]1CCCN1; Nle = CCCC[C@H](N)C(=O)O; Dap = NC[C@H](N)C(=O)O; AEEA = NCCOCCOCC(=O)O; Aib = CC(C)(N)C(=O)O
# T1: human APJ receptor (human, UniProt P35414 1-380)
# T1 sequence (looked up): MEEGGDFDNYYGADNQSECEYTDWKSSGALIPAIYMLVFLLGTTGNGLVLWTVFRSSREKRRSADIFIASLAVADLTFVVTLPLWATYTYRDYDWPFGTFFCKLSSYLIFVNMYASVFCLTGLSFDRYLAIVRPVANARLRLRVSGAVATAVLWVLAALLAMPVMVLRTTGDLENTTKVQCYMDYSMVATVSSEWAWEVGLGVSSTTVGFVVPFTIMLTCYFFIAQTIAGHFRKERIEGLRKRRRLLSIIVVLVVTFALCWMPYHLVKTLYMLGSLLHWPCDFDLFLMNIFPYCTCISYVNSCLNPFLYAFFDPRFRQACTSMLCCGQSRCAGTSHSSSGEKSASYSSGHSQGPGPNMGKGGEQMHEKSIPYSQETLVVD
# T2: rat APJ receptor (rat, UniProt Q9JHG3 1-377)
# T2 sequence (looked up): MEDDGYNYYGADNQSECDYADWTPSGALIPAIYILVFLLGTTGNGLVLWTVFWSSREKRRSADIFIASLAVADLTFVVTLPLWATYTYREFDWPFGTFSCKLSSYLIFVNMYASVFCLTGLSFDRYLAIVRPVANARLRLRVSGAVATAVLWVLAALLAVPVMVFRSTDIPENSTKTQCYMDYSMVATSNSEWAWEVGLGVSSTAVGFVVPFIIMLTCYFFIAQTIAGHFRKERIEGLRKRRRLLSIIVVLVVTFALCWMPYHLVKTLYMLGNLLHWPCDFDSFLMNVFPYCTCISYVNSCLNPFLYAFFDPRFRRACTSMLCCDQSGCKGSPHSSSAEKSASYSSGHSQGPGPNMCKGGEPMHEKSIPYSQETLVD
# T3: rat APJ receptor (rat, UniProt Q9JHG3 1-377)
# T3 sequence (looked up): T2 sequence (looked up)
# B1: Apelin polypeptide SEQ ID NO: 409 (peptide)
# peptide: Tridecanoyl-[AC4Abu][AEEA][AEEA]QRP[NMeR][Cha]SHKG[Oic][Nle][Phe(4-Cl)]-OH
# SMILES: CCCCCCCCCCCCC(=O)NCCC(C(=O)O)C(=O)NCCOCCOCC(=O)NCCOCCOCC(=O)N[C@@H](CCC(N)=O)C(=O)N[C@@H](CCCNC(=N)N)C(=O)N1CCC[C@H]1C(=O)N(C)[C@@H](CCCNC(=N)N)C(=O)N[C@@H](CC1CCCCC1)C(=O)N[C@@H](CO)C(=O)N[C@@H](Cc1c[nH]cn1)C(=O)N[C@@H](CCCCN)C(=O)NCC(=O)N1[C@H](C(=O)N[C@@H](CCCC)C(=O)N[C@@H](Cc2ccc(Cl)cc2)C(=O)O)C[C@@H]2CCCC[C@@H]21
# B2: Apelin polypeptide SEQ ID NO: 390 (peptide)
# peptide: Tridecanoyl-[γGlu][AEEA][AEEA]QRP[NMeR][Cha]SHKG[Oic][Nle]P[Phe(4-Cl)]-OH
# SMILES: CCCCCCCCCCCCC(=O)N[C@@H](CCC(=O)NCCOCCOCC(=O)NCCOCCOCC(=O)N[C@@H](CCC(N)=O)C(=O)N[C@@H](CCCNC(=N)N)C(=O)N1CCC[C@H]1C(=O)N(C)[C@@H](CCCNC(=N)N)C(=O)N[C@@H](CC1CCCCC1)C(=O)N[C@@H](CO)C(=O)N[C@@H](Cc1c[nH]cn1)C(=O)N[C@@H](CCCCN)C(=O)NCC(=O)N1[C@H](C(=O)N[C@@H](CCCC)C(=O)N2CCC[C@H]2C(=O)N[C@@H](Cc2ccc(Cl)cc2)C(=O)O)C[C@@H]2CCCC[C@@H]21)C(=O)O
# B3: Apelin polypeptide SEQ ID NO: 381 (peptide)
# peptide: Tridecanoyl-[γGlu][AEEA][AEEA]QRP[NMeR][Cha]SHKG[Oic][Nle]P[dPhe(4-Cl)]-OH
# SMILES: CCCCCCCCCCCCC(=O)N[C@@H](CCC(=O)NCCOCCOCC(=O)NCCOCCOCC(=O)N[C@@H](CCC(N)=O)C(=O)N[C@@H](CCCNC(=N)N)C(=O)N1CCC[C@H]1C(=O)N(C)[C@@H](CCCNC(=N)N)C(=O)N[C@@H](CC1CCCCC1)C(=O)N[C@@H](CO)C(=O)N[C@@H](Cc1c[nH]cn1)C(=O)N[C@@H](CCCCN)C(=O)NCC(=O)N1[C@H](C(=O)N[C@@H](CCCC)C(=O)N2CCC[C@H]2C(=O)N[C@H](Cc2ccc(Cl)cc2)C(=O)O)C[C@@H]2CCCC[C@@H]21)C(=O)O
# B4: Apelin polypeptide SEQ ID NO: 380 (peptide)
# peptide: Tridecanoyl-[γGlu][AEEA][AEEA]QRP[NMeR][Cha]SHKG[Oic][Nle]P[d(β3hF)]-OH
# SMILES: CCCCCCCCCCCCC(=O)N[C@@H](CCC(=O)NCCOCCOCC(=O)NCCOCCOCC(=O)N[C@@H](CCC(N)=O)C(=O)N[C@@H](CCCNC(=N)N)C(=O)N1CCC[C@H]1C(=O)N(C)[C@@H](CCCNC(=N)N)C(=O)N[C@@H](CC1CCCCC1)C(=O)N[C@@H](CO)C(=O)N[C@@H](Cc1c[nH]cn1)C(=O)N[C@@H](CCCCN)C(=O)NCC(=O)N1[C@H](C(=O)N[C@@H](CCCC)C(=O)N2CCC[C@H]2C(=O)N[C@@H](CC(=O)O)Cc2ccccc2)C[C@@H]2CCCC[C@@H]21)C(=O)O
# B5: SEQ ID NO: 289 (peptide)
# peptide: {HOOC(CH2)8CO}-[γGlu][AEEA][AEEA][hArg][dR]Q[hArg]P[dR][NMeL]SHKG[Oic][Phe(4-I)]P[dBip]-OH
# SMILES: CC(C)C[C@@H](C(=O)N[C@@H](CO)C(=O)N[C@@H](Cc1c[nH]cn1)C(=O)N[C@@H](CCCCN)C(=O)NCC(=O)N1[C@H](C(=O)N[C@@H](Cc2ccc(I)cc2)C(=O)N2CCC[C@H]2C(=O)N[C@H](Cc2ccc(-c3ccccc3)cc2)C(=O)O)C[C@@H]2CCCC[C@@H]21)N(C)C(=O)[C@@H](CCCNC(=N)N)NC(=O)[C@@H]1CCCN1C(=O)[C@H](CCCCNC(=N)N)NC(=O)[C@H](CCC(N)=O)NC(=O)[C@@H](CCCNC(=N)N)NC(=O)[C@H](CCCCNC(=N)N)NC(=O)COCCOCCNC(=O)COCCOCCNC(=O)CC[C@H](NC(=O)CCCCCCCCC(=O)O)C(=O)O
# B6: SEQ ID NO: 291 (peptide)
# peptide: {HOOC(CH2)8CO}-[γGlu][AEEA][AEEA][hArg][dR]Q[hArg]P[dR][NMeL]SHKG[Oic][Phe(4-I)]P[dBip]-OH
# SMILES: CC(C)C[C@@H](C(=O)N[C@@H](CO)C(=O)N[C@@H](Cc1c[nH]cn1)C(=O)N[C@@H](CCCCN)C(=O)NCC(=O)N1[C@H](C(=O)N[C@@H](Cc2ccc(I)cc2)C(=O)N2CCC[C@H]2C(=O)N[C@H](Cc2ccc(-c3ccccc3)cc2)C(=O)O)C[C@@H]2CCCC[C@@H]21)N(C)C(=O)[C@@H](CCCNC(=N)N)NC(=O)[C@@H]1CCCN1C(=O)[C@H](CCCCNC(=N)N)NC(=O)[C@H](CCC(N)=O)NC(=O)[C@@H](CCCNC(=N)N)NC(=O)[C@H](CCCCNC(=N)N)NC(=O)COCCOCCNC(=O)COCCOCCNC(=O)CC[C@H](NC(=O)CCCCCCCCC(=O)O)C(=O)O
# Molecular target: T1, human APJ receptor
# Test: cell-based or functional assay
row,Binder,EC50 Human APJ Receptor (GTPγS assay)
1,Tridecanoyl-[AC4Abu″][AEEA][AEEA]QRP[NMeR]LSH[Nle]GP[Nle]P[Phe(4-Cl)]-OH (reading uncertain) [Apelin polypeptide SEQ ID NO: 466],0.0461 nM
2,B1,1 nM
3,B2,0.11 nM
4,XXXQRPRLSHKGPXPF ({TDA}[AC4Abu][Aeea][Aeea]QR[aMePro][hArg][aMeLeu]SHKGP[Nle]P[4-Cl-F]{COOH}) [Apelin polypeptide SEQ ID NO: 482],0.0862 nM
5,Tridecanoyl-[γGlu][AEEA][AEEA][dQ]RP[NMeR][Cha]SHKG[Oic][Nle][Aib][Phe(4-Cl)]-OH [Apelin polypeptide SEQ ID NO: 540],0.41 nM
6,Tridecanoyl-[AC4Abu″][AEEA][AEEA]QR[β3hP][NMeR][Cha]SHKG[Oic][Nle]P[Phe(4-Cl)]-OH (reading uncertain) [Apelin polypeptide SEQ ID NO: 441],1.9 nM
7,XXXQRPRLSHKGPXPF ({TDA}[AC4Abu][Aeea][Aeea]Q[hArg]P[NMeArg][BLeu]SHKGP[Nle]P[4-Cl-F]{COOH}) [Apelin polypeptide SEQ ID NO: 383],0.535 nM
8,Tridecanoyl-[AC4Abu″][AEEA][AEEA]QRP[NMeR][Cha]SHKG[Oic][Nle][Aib][Phe(4-Cl)]-OH (reading uncertain) [Apelin polypeptide SEQ ID NO: 382],0.469 nM
9,B3,6.12 nM
10,B4,16.7 nM

# Molecular target: T2, rat APJ receptor
# Test: cell-based or functional assay
row,Binder,EC50 Rat APJ Receptor (GTPγS assay)
1,B1,0.511 nM
2,B2,0.57 nM
3,B3,5.42 nM
4,B4,4.77 nM

# Molecular target: T3, rat APJ receptor
# Test: cell-based or functional assay
row,Binder,EC50 Rat APJ Receptor
1,XXXQRPRLSHKGPXPF ({hexanoyl}[AC4Abu][Aeea][Aeea]QrP[hArg][aMeLeu]SHKGP[Nle]P[4-Cl-F]{COOH}) [SEQ ID NO: 514],6.69 nM
2,XXXQRPRLSHKGPXPF ({ODDA}[AC4Abu][Aeea][Aeea]QRP[NMeArg]LSHKGP[Nle]P[4-Cl-F]{COOH}) [SEQ ID NO: 513],6.12 nM
3,B5,1.3 nM
4,XXXQRPRLSHKGPXPF ({Myristyl-NH}[AC4Abu][Aeea][Aeea]QRP[NMeArg]LSHKGP[Nle]P[4-Cl-F]{COOH}) [SEQ ID NO: 592],0.598 nM
5,Palmitoyl-[AC4Abu″][AEEA][AEEA][dQ]RP[NMeR][αMeL]S[Dap]KG[Oic][Nle][β3hP][Phe(4-Cl)]-OH (reading uncertain) [SEQ ID NO: 630],0.486 nM
6,Tridecanoyl-[AC4Abu″][AEEA][AEEA][hArg][hArg]Q[hArg]P[NMeR][Cha]SHKG[Oic][Nle]P[Phe(4-Cl)]-OH (reading uncertain) [SEQ ID NO: 309],0.215 nM
7,XXXQRPRLSHKGPXPF ({Succinicacid}[AC4Abu][Aeea][Aeea]QRP[NMeArg]LSHKGP[Nle]P[4-Cl-F]{COOH}) [SEQ ID NO: 497],1.39 nM
8,XXXQRPRLSHKGPXPF ({Palm}[AC4Abu][Aeea][Aeea]QRP[NMeArg]LSHKGP[Nle]P[4-Cl-F]{COOH}) [SEQ ID NO: 593],0.231 nM
9,B6,2.47 nM
10,KLRKHNCLQRRCMPLHSRVPFP [SEQ ID NO: 15],16.1 nM
11,XXXQRPRLSHKGPXPF ({Subericacid}[AC4Abu][Aeea][Aeea]QRP[NMeArg]LSHKGP[Nle]P[4-Cl-F]{COOH}) [SEQ ID NO: 508],0.467 nM
12,XXXQRPRLSHKGPXPF ({hexanoyl}[AC4Abu][Aeea][Aeea]QRP[hArg][aMeLeu]SHKGP[Nle]P[4-Cl-F]{COOH}) [SEQ ID NO: 559],9.15 nM
13,XXXQRPRLSHKGPXPF ({TDA}[AC4Abu][Aeea][Aeea][BhGln]RP[NMeArg]LSHKGP[Nle]P[4-Cl-F]{COOH}) [SEQ ID NO: 463],0.128 nM
14,XXXQRPRLSHKGPXPF ({DDDA}[AC4Abu][Aeea][Aeea]QRP[NMeArg]LSHKGP[Nle]P[4-Cl-F]{COOH}) [SEQ ID NO: 510],0.903 nM
15,XXXQRPRLSHKGPXPF ({St}[AC4Abu][Aeea][Aeea]QRP[NMeArg]LSHKGP[Nle]P[4-Cl-F]{COOH}) [SEQ ID NO: 594],0.528 nM

# Source: patent publication US10941182 (Amgen, dated 2021)
